From patent US20260274955A1 (JANUX THERAPEUTICS, published 2026) come the findings set out here.

T1 sequence (VH, as listed by the source, chain 1 of 2): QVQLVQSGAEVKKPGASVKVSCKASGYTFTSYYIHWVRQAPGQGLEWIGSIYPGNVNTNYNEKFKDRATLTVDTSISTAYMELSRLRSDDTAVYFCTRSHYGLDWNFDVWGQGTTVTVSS
T1 sequence (VL, as listed by the source, chain 2 of 2): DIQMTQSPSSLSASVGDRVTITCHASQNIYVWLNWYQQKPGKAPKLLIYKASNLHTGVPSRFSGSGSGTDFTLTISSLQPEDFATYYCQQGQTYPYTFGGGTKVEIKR

The target of the first assay is Anti-CD28 Fab (SEQ ID NOs: 202, 203). Put plainly: phage binding ELISA on captured Fab;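 note: clonal phage supernatants added briefly to wells pre-incubated with CD28 antigen or with blocking buffer only, then washed, bound phage read by ELISA using HRP-coupled anti-M13 antibody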; competitor CD28 antigen. (An ELISA detects its analyte on a solid surface through an enzyme-linked reagent.)
Sequence of Anti-CD28 Fab (SEQ ID NOs: 202, 203) (VH, as listed by the source, chain 1 of 2): as the sequence (VH, as listed by the source, chain 1 of 2) above
Sequence of Anti-CD28 Fab (SEQ ID NOs: 202, 203) (VL, as listed by the source, chain 2 of 2): as the sequence (VL, as listed by the source, chain 2 of 2) above
Description: (§1) Clonal phage were harvested as crude supernatants and screened via standard ELISAs. […] Prior to the addition of clonal phage, wells were incubated with blocking buffer and CD28 antigen or blocking buffer alone. Without washing or aspirating, clonal phage supernatants were then added to the wells and incubated for a short time. Wells were then washed followed by detection of bound phage using a horse radish conjugated anti-M13 antibody.
In the case of YCDGHLPEYMAKCL [Phage-69], the “Anti-CD28 Fab signal in the presence of CD28” value (shortened to “Anti-CD28 Fab signal … of CD28”) was 0.13.
The same measure, in the same setting: for YCEGHLPEYIEKCL [Phage-28] the value was 0.08; for YCEGHAPEYIAKCL [Phage-29], 0.09.
On the same count and under the same terms, for YCEGHSPEYILKCL [Phage-25] the value was 0.06; for YCEGHRPEYILKCL [Phage-26], 0.06; for YCDGHSPEYILKCL [Phage-93], 0.09.
As to YCEGHEGIYFWKCL [Phage-27], the “Anti-CD28 Fab signal … of CD28” value came out at 0.06.

The next assay addresses T1, anti-CD28 Fab (SEQ ID NOs: 202, 203).
T1 construct: biotinylated and captured on neutravidin coated plates in the phage ELISA
Kind of assay: phage binding ELISA; Fab wells pre-incubated with CD28 antigen (competitor).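 Note: clonal phage supernatants added to wells preincubated with CD28 antigen in blocking buffer versus blocking buffer alone, washed, bound phage read by HRP-conjugated anti-M13 antibody.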
Description: as §1
In the case of YCDGHSSEYIAKCL [Phage-383], the “Anti-CD28 Fab signal … of CD28” value amounted to 0.07.
Still for that read-out and setting: for YCDGHSPEYIAKCL [Phage-374] the value was 0.23; for YCAGHAPEYMFKCM [Phage-347], 0.06.
Turning to YCAGHLQEYMQKCL [Phage-445], the “Anti-CD28 Fab signal … of CD28” value turned out to be 0.07.
For YCEGHTSEYMNKCL [Phage-335], the “Anti-CD28 Fab signal … of CD28” value worked out at 0.06.
On the same count and under the same terms, for YCDGHSAAYIMKCL [Phage-342] the value was 0.09; for YCVGHAPEFMAKCL [Phage-369], 0.1; for YCAGHSPLYMLKCL [Phage-442], 0.1.
YCDGHLPVYLEKCL [Phage-444]: the “Anti-CD28 Fab signal … of CD28” value is 0.06.
Take YCDGHLGVYMAKCL [Phage-372]: the “Anti-CD28 Fab signal … of CD28” value worked out at 0.07.
Regarding YCEGHSWEYIGKCL [Phage-332], the “Anti-CD28 Fab signal … of CD28” value stood at 0.07.
Turning to YCQGHSAEYMMKCL [Phage-364], the “Anti-CD28 Fab signal … of CD28” value was 0.07.
The same measure, in the same setting: for YCDGHMPEYLAKCL [Phage-338] the value was 0.07.
Same read-out and setting: to YCDGHSALYMSKCL [Phage-333] belongs 0.08; to YCEGHLDEYMWKCL [Phage-381], 0.06.
Take YCAGHLPEYLSKCL [Phage-345]: the “Anti-CD28 Fab signal … of CD28” value is 0.07.
Still for that read-out and setting: to YCDGHLDEYMEKCL [Phage-386] belongs 0.08.
As to YCAGHSSEYMWKCL [Phage-340], the “Anti-CD28 Fab signal … of CD28” value worked out at 0.07.
Take YCDGHTSEYITKCL [Phage-373]: the “Anti-CD28 Fab signal … of CD28” value amounted to 0.07.
On the same count and under the same terms, to YCDGHTREYIDKCL [Phage-368] belongs 0.08.
YCEGHSPQYVQKCL [Phage-384]: the “Anti-CD28 Fab signal … of CD28” value worked out at 0.06.
As to YCDGHSAEYITKCL [Phage-380], the “Anti-CD28 Fab signal … of CD28” value came to 0.06.
Same read-out and setting: for YCDGHAWEYMTKCL [Phage-448] the value was 0.35.
Turning to YCEGHSPWYMNKCL [Phage-449], the “Anti-CD28 Fab signal … of CD28” value was 0.06.
The same measure, in the same setting: to YCDGHTGVYFYKCL [Phage-334] belongs 0.08.
Still for that read-out and setting: to YCAGHVPEYMAKCL [Phage-379] belongs 0.07.
With YCAGHLPMYMAKCL [Phage-367], the “Anti-CD28 Fab signal … of CD28” value came to 0.08.
Still for that read-out and setting: for YCDGHSLQYLGKCL [Phage-343] the value was 0.09.
With YCEGHAAEYMSKCL [Phage-339], the “Anti-CD28 Fab signal … of CD28” value is 0.07.
Consider YCDGHKAEYMEKCL [Phage-366], for which the “Anti-CD28 Fab signal … of CD28” value worked out at 0.09.
On to YCAGHAEQYMAKCL [Phage-370], for which the “Anti-CD28 Fab signal … of CD28” value was 0.08.
Regarding YCAGHLPEYMLKCL [Phage-387], the “Anti-CD28 Fab signal … of CD28” value was found to be 0.09.
On the same count and under the same terms, for YCDGHSPAYMAKCL [Phage-350] the value was 0.1.
Take YCDGHLAMYMDKCL [Phage-337]: the “Anti-CD28 Fab signal … of CD28” value stood at 0.08.
Turning to YCDGHSWAYMWKCL [Phage-341], the “Anti-CD28 Fab signal … of CD28” value amounted to 0.13.
The same measure, in the same setting: to YCDGLASEYMSKCL [Phage-382] belongs 0.05; to YCEGHLQIYMSKCL [Phage-346], 0.14.
On the same count and under the same terms, for YCEGHLPIYMSKCL [Phage-388] the value was 0.09.

Another assay has the same target. Put plainly: phage binding ELISA; biotinylated Fab on neutravidin plate.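 Note: clonal phage supernatants added to Fab wells pretreated with CD28 antigen or with blocking buffer only, bound phage read out via HRP-linked anti-M13 antibody.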
Description: as §1
Take YCDGHSSEYIAKCL [Phage-383]: the “Anti-CD28 Fab (SEQ ID NOs: 202, 203) signal” value was 1.77.
Same read-out and setting: to YCDGHSPEYIAKCL [Phage-374] belongs 1.79.
YCAGHAPEYMFKCM [Phage-347]: the “Anti-CD28 Fab (SEQ ID NOs: 202, 203) signal” value was determined as 1.83.
Still for that read-out and setting: for YCAGHLQEYMQKCL [Phage-445] the value was 1.69; for YCEGHTSEYMNKCL [Phage-335], 1.87.
Take YCDGHSAAYIMKCL [Phage-342]: the “Anti-CD28 Fab (SEQ ID NOs: 202, 203) signal” value is 1.84.
As for YCVGHAPEFMAKCL [Phage-369], the “Anti-CD28 Fab (SEQ ID NOs: 202, 203) signal” value came out at 1.8.
Same read-out and setting: to YCAGHSPLYMLKCL [Phage-442] belongs 1.7.
Still for that read-out and setting: to YCDGHLPVYLEKCL [Phage-444] belongs 1.69.
Still for that read-out and setting: for YCDGHLGVYMAKCL [Phage-372] the value was 1.79.
On to YCEGHSWEYIGKCL [Phage-332], for which the “Anti-CD28 Fab (SEQ ID NOs: 202, 203) signal” value amounted to 1.87.
Still for that read-out and setting: to YCQGHSAEYMMKCL [Phage-364] belongs 1.81; to YCDGHMPEYLAKCL [Phage-338], 1.86.
For YCDGHSALYMSKCL [Phage-333], the “Anti-CD28 Fab (SEQ ID NOs: 202, 203) signal” value was 1.87.
As to YCEGHLDEYMWKCL [Phage-381], the “Anti-CD28 Fab (SEQ ID NOs: 202, 203) signal” value worked out at 1.77.
The same measure, in the same setting: for YCAGHLPEYLSKCL [Phage-345] the value was 1.84.
Still for that read-out and setting: for YCDGHLDEYMEKCL [Phage-386] the value was 1.76.
On the same count and under the same terms, for YCAGHSSEYMWKCL [Phage-340] the value was 1.85; for YCDGHTSEYITKCL [Phage-373], 1.79.
YCDGHTREYIDKCL [Phage-368]: the “Anti-CD28 Fab (SEQ ID NOs: 202, 203) signal” value came out at 1.8.
Still for that read-out and setting: to YCEGHSPQYVQKCL [Phage-384] belongs 1.77; to YCDGHSAEYITKCL [Phage-380], 1.77; to YCDGHAWEYMTKCL [Phage-448], 1.69.
Turning to YCEGHSPWYMNKCL [Phage-449], the “Anti-CD28 Fab (SEQ ID NOs: 202, 203) signal” value was found to be 1.68.
The same measure, in the same setting: to YCDGHTGVYFYKCL [Phage-334] belongs 1.87.
With YCAGHVPEYMAKCL [Phage-379], the “Anti-CD28 Fab (SEQ ID NOs: 202, 203) signal” value came to 1.78.
In the case of YCAGHLPMYMAKCL [Phage-367], the “Anti-CD28 Fab (SEQ ID NOs: 202, 203) signal” value stood at 1.8.
For YCDGHSLQYLGKCL [Phage-343], the “Anti-CD28 Fab (SEQ ID NOs: 202, 203) signal” value was determined as 1.84.
Consider YCEGHAAEYMSKCL [Phage-339], for which the “Anti-CD28 Fab (SEQ ID NOs: 202, 203) signal” value worked out at 1.86.
Turning to YCDGHKAEYMEKCL [Phage-366], the “Anti-CD28 Fab (SEQ ID NOs: 202, 203) signal” value stood at 1.81.
In the case of YCAGHAEQYMAKCL [Phage-370], the “Anti-CD28 Fab (SEQ ID NOs: 202, 203) signal” value stood at 1.8.
Still for that read-out and setting: to YCAGHLPEYMLKCL [Phage-387] belongs 1.76.
Take YCDGHSPAYMAKCL [Phage-350]: the “Anti-CD28 Fab (SEQ ID NOs: 202, 203) signal” value came out at 1.83.
The same measure, in the same setting: for YCDGHLAMYMDKCL [Phage-337] the value was 1.86; for YCDGHSWAYMWKCL [Phage-341], 1.85.
Take YCDGLASEYMSKCL [Phage-382]: the “Anti-CD28 Fab (SEQ ID NOs: 202, 203) signal” value stood at 1.77.
For YCEGHLQIYMSKCL [Phage-346], the “Anti-CD28 Fab (SEQ ID NOs: 202, 203) signal” value was determined as 1.84.
On the same count and under the same terms, for YCEGHLPIYMSKCL [Phage-388] the value was 1.76.

The next assay deals with Anti-CD28 Fab (SEQ ID NOs: 202, 203). Kind of assay: phage binding ELISA on captured Fab.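 Note: clonal phage supernatants added briefly to wells pre-incubated with CD28 antigen or with blocking buffer only, then washed, bound phage read by ELISA using HRP-coupled anti-M13 antibody.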
Description: as §1
Consider YCDGHLPEYMAKCL [Phage-69], for which the “Anti-CD28 Fab signal” value was 2.37.
Same read-out and setting: for YCEGHLPEYIEKCL [Phage-28] the value was 2.06; for YCEGHAPEYIAKCL [Phage-29], 2.15.
For YCEGHSPEYILKCL [Phage-25], the “Anti-CD28 Fab signal” value came out at 1.75.
With YCEGHRPEYILKCL [Phage-26], the “Anti-CD28 Fab signal” value was found to be 1.27.
The same measure, in the same setting: for YCDGHSPEYILKCL [Phage-93] the value was 2.31; for YCEGHEGIYFWKCL [Phage-27], 2.07.
